US11078245B2, “Colon and pancreas cancer peptidomimetics” (PRECISION BIOLOGICS, INC., priority 2010, dated 2021)
“And” between values parts separate entries of the source, which are not always exact repeats. Equal entries are not always repeated.

Experiments:
[1] = Cytokine response in vivo, multiplex bead assay; design: species or system BALB/c mice; details: 3.5 or 14 mg/kg iv; day 3
Description: In a preliminary study designed to evaluate potential cytokine responses in vivo, normal BALB/c mice were injected intravenously with either 3.5 mg/kg or 14 mg/kg (5 mice per group) of research-grade NEO-101. Blood was collected on Study Day 3 (^72 hours post-injection) and Study Day 10. Serum was prepared (including from the pre-bleed of each mouse) and tested for the presence of mouse IL-2, IFN-γ, IL-4, and IL-5 in a multiplex bead assay using the SearchLight Array service offered by Aushon BioSystems, Inc.

[2] = normal BALB/c mice
Description: Mouse anti-NEO-101 antibody (MAHA) responses were also measured in this study (CB08-5110). The analysis employed an ELISA based assay to detect NEO-101-specific antibodies in mouse serum.

LS174T colorectal tumor = LS174T colorectal tumor xenograft model; format: in vivo, nude mice; details: same treatment regimen; last day P=0.0145
Description: Since the LS174T colorectal tumor cell line served as a good target in vitro in the ADCC assay, this cell line was used in a xenograft tumor model. The LS174T cells were implanted subcutaneously in nude mice and the same treatment regimen was administered to these mice. […] Nonetheless, we observed a 2-3-fold reduction in tumor growth in NEO-101 treated mice compared to the 2 control groups of mice following the treatment cycles. The anti-tumor effect upon treatment with NEO-101 was significant on the last day of measuring tumors with P=0.0145 by one-way ANOVA. However, many of the tumors in the control groups became ulcerated and were greater than 1000 mm^3 and the study was terminated.

[3] = tested on: lung cancer cell line A549; assay: Immunofluorescence with FITC labeled NEO-101; format: cell-based, human; details: 2 μg/ml FITC labeled antibody
DU145 (Prostate) = assay: ADCC 4-hour 111-Indium release assay; format: cell-based, human
CFPAC-1 cells = assay: Immunofluorescence staining with MUC5AC antibodies; format: cell-based, human; details: 2 μg/ml antibody
Description: LS174T and CFPAC-1 cells were grown on cover slips coated in FBS for 48 hours. Cells were then fixed with 4% PFA in PBS, washed with PBS, permeabilized with 0.2% Triton X-100, washed with PBS and blocked with 1% BSA in PBS. Cells were incubated with either 2 μg/ml NEO-101, MS-X, 2-11M1, H160, 351-450, 2-12M1, or 1-13M1. Cells were washed with PBS and then second antibody was added anti-human-FITC, anti-mouse-FITC or anti-rabbit-FITC (1:500), cells were washed and mounted on slides with DAPI hard mount. Cover slides were allowed to sit over night at 4° C. Slides were visualized with a Nikon Eclipse Ti microscope with an Andor camera.

[4] = tested on: colorectal and pancreatic cancer biopsies; assay: IHC staining of patient tumor biopsies with NEO-101; format: binding, human; details: colorectal and pancreatic biopsies together
Description: Patients enrolled on the clinical diagnostic study agreed to provide their tumor biopsy or surgical specimen to be stained immunohistochemically with NEO-101. Tumor sections were prepared as slides, and two additional slides were prepared for negative control (human IgG1) and positive control (cytokeratin) staining to ensure quality controls for the IHC method. More specifically, tumor biopsy specimens from colorectal and pancreas cancer patients were deparaffinized at about 60° C. for 30 min prior to staining with NEO-101. Subsequently, all staining steps were carried out at about 25° C. Slides (4 μm) were blocked with Peroxo-Bloc® inhibitor (Zymed Laboratories) for about 2 min, rinsed with phosphate-buffered saline (PBS), and blocked with CAS (Zymed) for an additional about 10 minutes. Slides were stained with about 10 μg/mL of biotin-labeled NEO-101 for 1 hour, and washed three times with PBS containing 0.05% Tween®-20 non-ionic detergent. […]
All antibodies were biotinylated prior to use and tested independently at various concentrations using human tumor tissues known to react with the antibodies. Primary antibody (NEO-101) was used at about 10 μg/mL, detected with streptavidin-horseradish peroxidase conjugate, and mounted on slides. A positive staining scale ranging from +1 to +5 was applied to the staining results, measured by light microscopy. […]

PANC-1 (Pancreatic) = assay: ADCC 4-hour 111-Indium release assay; format: cell-based, human
Description: (§1) The NEO-101 antibody was tested for antibody-dependent cell cytotoxicity (ADCC) activity against several colorectal and pancreatic tumor cell targets in vitro. The ADCC assay measures the amount of cell cytotoxicity that an antibody facilitates in a defined time period by the release of radiolabelled cytoplasmic proteins into the culture medium. […] The specific lytic activity was titratable with the number of effector cells in the assay.

CFPAC-1 (Pancreatic) = assay: ADCC 4-hour 111-Indium release assay; format: cell-based, human
Description: as §1

SK-MEL (Melanoma) = assay: ADCC 4-hour 111-Indium release assay; format: cell-based, human
Description: as §1

AsPC-1 (Pancreatic) = assay: ADCC 4-hour 111-Indium release assay; format: cell-based, human
Description: as §1

human tissues = assay: Immunohistochemistry of human tissues, overall; format: binding
Text: Thus, the NPC-1 epitope is expressed by colon and pancreatic tumor cells but not normal colon or pancreatic […] cells. Therefore, the NPC-1 epitope may be used as a tumor-specific marker or a therapeutic target for colon and pancreatic cancer. Further, peptidomimetics of the NPC-1 epitope (e.g., the polypeptide of SEQ ID NO: 1-24) as described herein may be used in the detection and treatment of cancer (e.g., colon, pancreas, breast, lung, ovarian, stomach, esophageal).

B1: NEO-101: Chimeric NEO-101 antibody, engineered in CHO-DG44 production cell clone 4B7; targets a variant of MUC5AC (protein)
light: QVVLTQSPVIMSASPGEKVTMTCSASSSISYMYWYQQKPGTSPKRWIYDTSKLASGVPARFSGSGSGTSYSLTISNMEAGDAATYYCHQRDSYPWTFGGGTNLEIK
heavy: QVQLKESGPDLVAPSQSLSITCTVSGFSLSKFGVNWVRQPPGKGLEWLGVIWGDGSTSYNSGLISRLSISKENSKSQVFLKLNSLQADDTATYYCVKPGGDYWGHGTSVTVSS
- serum level of IFN-γ [1]: no appreciable change
- serum level of IL-2 [1]: small increase
- serum level of IL-4 [1]: no appreciable change
- serum level of IL-5 [1]: small increase
- immunogenicity (MAHA response) [2]: only mildly immunogenic
- reduction in tumor growth compared to the 2 control groups (LS174T colorectal tumor): 2-3 fold
- binding by immunofluorescence [3]: does not bind
- % Specific Killing (±SEM) (DU145 (Prostate); Effector:Target 12.5:1): −0.3 ± 0.1%
- % Specific Killing (±SEM) (DU145 (Prostate); Effector:Target 25:1): 0.3 ± 0.8%
- % Specific Killing (±SEM) (DU145 (Prostate); Effector:Target 50:1): −0.5 ± 0.3%
- cells stained (CFPAC-1 cells): about 50%
- patient tumor samples considered positive (+1 to +5) [4]: 79%
- patient tumor samples considered positive, samples/total [4]: 30 of 38 and 30/38
- % Specific Killing (±SEM) (PANC-1 (Pancreatic); Effector:Target 12.5:1): 21.2 ± 0.6%
- % Specific Killing (±SEM) (PANC-1 (Pancreatic); Effector:Target 25:1): 33.2 ± 3.3%
- % Specific Killing (±SEM) (PANC-1 (Pancreatic); Effector:Target 50:1): 46.8 ± 2.1%
- % Specific Killing (±SEM) (CFPAC-1 (Pancreatic); Effector:Target 12.5:1): 11.1 ± 1.6%
- % Specific Killing (±SEM) (CFPAC-1 (Pancreatic); Effector:Target 25:1): 23.2 ± 2.2%
- % Specific Killing (±SEM) (CFPAC-1 (Pancreatic); Effector:Target 50:1): 26.9 ± 1.6%
- % Specific Killing (±SEM) (SK-MEL (Melanoma); Effector:Target 12.5:1): 2.3 ± 0.6%
- % Specific Killing (±SEM) (SK-MEL (Melanoma); Effector:Target 25:1): 3.3 ± 1.1%
- % Specific Killing (±SEM) (SK-MEL (Melanoma); Effector:Target 50:1): 4.6 ± 1.1%
- % Specific Killing (±SEM) (AsPC-1 (Pancreatic); Effector:Target 12.5:1): 26.5 ± 6.7%
- % Specific Killing (±SEM) (AsPC-1 (Pancreatic); Effector:Target 25:1): 36.2 ± 2.6%
- % Specific Killing (±SEM) (AsPC-1 (Pancreatic); Effector:Target 50:1): 44.5 ± 6.8%
- cross-reactivity in other normal human tissues stained (human tissues): no cross-reactivity
